Test results published in patent US20060257406A1 (published 2006).
Where a chain is given by its changes, count along the chain named. Read-outs that look alike come from different tables or passages of the source. Blank lines part the entries; values can stand above or below the binder they belong to.

Legend:
human TNFα [1] = molecular target: T1, human TNFα (human, UniProt P01375 77-233); assay: cell-based or functional assay
human TNFα [2] = molecular target: T1, human TNFα; assay: TNF receptor assay (ELISA): inhibition of TNF binding to plate-bound TNF receptor 1-Fc
human TNFα [3] = molecular target: T1, human TNFα; assay: as above; remark: listed apart in the source
human TNFα [4] = molecular target: T1, human TNFα; assay: as above; remark: listed apart in the source
mouse serum albumin = molecular target: T2, mouse serum albumin (mouse, UniProt P07724 25-608); assay: capture ELISA: dAb on protein L, biotinylated MSA, streptavidin-HRP
T2 construct: biotinylated MSA (about 2 biotins per molecule) in the capture ELISA; also called MSA
Procedure: Two rounds of selection were performed on serum albumin using each of the libraries separately. For each selection, antigen was coated on immunotube (nunc) in 4 ml of PBS at a concentration of 100 μg/ml. In the first round of selection, each of the three libraries was panned separately against HSA (Sigma) and MSA (Sigma). In the second round of selection, phage from each of the six first round selections was panned against (i) the same antigen again (eg 1st round MSA, 2nd round MSA) and (ii) against the reciprocal antigen (eg 1st round MSA, 2nd round HSA) resulting in a total of twelve 2nd round selections. In each case, after the second round of selection 48 clones were tested for binding to HSA and MSA. Soluble dAb fragments were produced as described for scFv fragments by Harrison et al, Methods Enzymol. 1996; 267:83-109 and standard ELISA protocol was followed (Hoogenboom et al. (1991) Nucleic Acids Res., 19: 4133) except that 2% tween PBS was used as a blocking buffer and bound dabs were detected with either protein LHRP (Sigma) (for the Vκs) and protein A—HRP (Amersham Pharmacia Biotech) (for the VHs).
Next, the serum albumin binding dAbs were tested for their ability to capture biotinylated antigen from solution. ELISA protocol (as above) was followed except that ELISA plate was coated with 1 μg/ml protein L (for the Vκ clones) and 1 μg/ml protein A (for the VH clones). Soluble dAb was captured from solution as in the protocol and detection was with biotinylated MSA or HSA and streptavidin HRP. The biotinylated MSA and HSA had been prepared according to the manufacturer's instructions, with the aim of achieving an average of 2 biotins per serum albumin molecule. […] Next, the dAbs were tested for their ability to bind MSA coated on a CM5 biacore chip.

human TNFα [5] = molecular target: T1, human TNFα; assay: TNF receptor assay (ELISA): inhibition of TNF binding to plate-bound TNF receptor 1-Fc; remark: listed apart in the source

T1 sequence (P01375 77-233 limits assumed): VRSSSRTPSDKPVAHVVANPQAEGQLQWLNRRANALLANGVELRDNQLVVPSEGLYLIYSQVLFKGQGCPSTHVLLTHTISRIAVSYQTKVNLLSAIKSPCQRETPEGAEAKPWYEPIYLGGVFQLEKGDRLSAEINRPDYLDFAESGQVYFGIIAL
T2 sequence (P07724 25-608 limits assumed): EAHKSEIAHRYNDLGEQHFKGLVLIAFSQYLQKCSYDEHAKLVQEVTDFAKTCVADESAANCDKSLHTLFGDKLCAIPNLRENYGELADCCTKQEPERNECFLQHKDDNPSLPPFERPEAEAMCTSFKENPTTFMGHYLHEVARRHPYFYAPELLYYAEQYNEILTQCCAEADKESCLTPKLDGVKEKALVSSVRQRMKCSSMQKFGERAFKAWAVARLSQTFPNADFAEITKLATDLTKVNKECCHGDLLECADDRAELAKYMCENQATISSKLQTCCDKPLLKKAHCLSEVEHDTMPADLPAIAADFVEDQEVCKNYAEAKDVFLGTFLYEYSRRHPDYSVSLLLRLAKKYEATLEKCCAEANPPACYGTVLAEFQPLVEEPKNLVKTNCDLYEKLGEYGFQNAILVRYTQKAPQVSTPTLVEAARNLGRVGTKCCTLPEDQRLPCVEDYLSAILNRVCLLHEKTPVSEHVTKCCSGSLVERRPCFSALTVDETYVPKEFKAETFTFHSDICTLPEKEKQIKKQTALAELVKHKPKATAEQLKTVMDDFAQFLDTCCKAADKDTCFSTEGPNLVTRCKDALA

B2: TAR1-5-19 7U homodimer (other)
chain: DIQMTQSPSSLSASVGDRVTITCRASQSIDSYLHWYQQKPGKAPKLLIYSASELQSGVPSRFSGSGSGTDFTLTISSLQPEDFATYYCQQVVWRPFTFGQGTKVEIKRGGGGSGGGGSGGGGSGGGGSGGGGSGGGGSGGGGSDIQMTQSPSSLSASVGDRVTITCRASQSIDSYLHWYQQKPGKAPKLLIYSASELQSGVPSRFSGSGSGTDFTLTISSLQPEDFATYYCQQVVWRPFTFGQGTKVEIKR
notes: also called TAR1-5-19 homodimer with (Gly4Ser)7 linker
CA (cell assay) ND50 (human TNFα [1]): ~15 nM
IC50 (human TNFα [2]): ~10 nM

B3: TAR1-5-19 3U homodimer (other)
chain: DIQMTQSPSSLSASVGDRVTITCRASQSIDSYLHWYQQKPGKAPKLLIYSASELQSGVPSRFSGSGSGTDFTLTISSLQPEDFATYYCQQVVWRPFTFGQGTKVEIKRGGGGSGGGGSGGGGSDIQMTQSPSSLSASVGDRVTITCRASQSIDSYLHWYQQKPGKAPKLLIYSASELQSGVPSRFSGSGSGTDFTLTISSLQPEDFATYYCQQVVWRPFTFGQGTKVEIKR
notes: also called TAR1-5-19 homodimer with (Gly4Ser)3 linker
CA (cell assay) ND50 (human TNFα [1]): ~30 nM
IC50 (human TNFα [2]): ~20 nM

B4: TAR1-5d6 (other)
chain: DIQMTQSPSSLSASVGDRVTITCRASQSIFMNLLWYQQKPGKAPKLLIYNASVLQSGVPSRFSGSGSGTDFTLTISSLQPEDFATYYCQQVVWRPFTFGQGTKVEIKRGGGGSGGGGSGGGGSGGGGSGGGGSGGGGSGGGGSDIQMTQSPSSLSASVGDRVTITCRASQSIYDALEWYQQKPGKAPKLLIYTASRLQSGVPSRFSGSGSGTDFTLTISSLQPEDFATYYCQQVMQRPVTFGQGTKVEIK
notes: FPLC purified large dimeric species; also called dimer 6
IC50 (human TNFα [3]): ~100 nM

B6: TAR1-5d5 (other)
chain: DIQMTQSPSSLSASVGDRVTITCRASQSIFMNLLWYQQKPGKAPKLLIYNASVLQSGVPSRFSGSGSGTDFTLTISSLQPEDFATYYCQQVVWRPFTFGQGTKVEIKRGGGGSGGGGSGGGGSGGGGSGGGGSDIQMTQSPSSLSASVGDRVTITCRASQSIYDALEWYQQKPGKAPKLLIYTASRLQSGVPSRFSGSGSGTDFTLTISSLQPEDFATYYCQQVMQRPVTFGQGTKVEIK
notes: FPLC purified large dimeric species; also called dimer 5
IC50 (human TNFα [3]): ~200 nM

B7: TAR1-5d4 (other)
chain: DIQMTQSPSSLSASVGDRVTITCRASQSIFMNLLWYQQKPGKAPKLLIYNASVLQSGVPSRFSGSGSGTDFTLTISSLQPEDFATYYCQQVVWRPFTFGQGTKVEIKRGGGGSGGGGSGGGGSGGGGSGGGGSDIQMTQSPSSLSASVGDRVTITCRASQSVKEFLWWYQQKPGKAPKLLIYMASNLQSGVPSRFSGSGSGTDFTLTISSLQPEDFATYYCQQKFKLPRTFGQGTKVEIK
notes: FPLC purified small dimeric species; also called TAR1-5 dimer 4
IC50 (human TNFα [3]): ~3 nM

B9: TAR1-5d1 (other)
chain: DIQMTQSPSSLSASVGDRVTITCRASQSIFMNLLWYQQKPGKAPKLLIYNASVLQSGVPSRFSGSGSGTDFTLTISSLQPEDFATYYCQQVVWRPFTFGQGTKVEIKRGGGGSGGGGSGGGGSDIQMTQSPSSLSASVGDRVTITCRASQSIYDALEWYQQKPGKAPKLLIYTASRLQSGVPSRFSGSGSGTDFTLTISSLQPEDFATYYCQQVMQRPVTFGQGTKVEIK
notes: dAb-linker-dAb dimer; FPLC purified small dimeric species; also called dimer 1
IC50 (human TNFα [3]): ~30 nM

B12: TAR1-5-19CH/dAb1 CK (Fab, V domains shown)
V domain 1: DIQMTQSPSSLSASVGDRVTITCRASQSIDSYLHWYQQKPGKAPKLLIYSASELQSGVPSRFSGSGSGTDFTLTISSLQPEDFATYYCQQVVWRPFTFGQGTKVEIK
V domain 2: B12 V domain 1 with D30Y, S31D, Y32A, H34E, S50T, E53R, V92M, W93Q, F96V
notes: also called TAR1-5-19CH d1CK
IC50 (human TNFα [5]): ~6 nM

B13: dAb1 CH/TAR1-5-19CK (Fab, V domains shown)
V domain 1: B12 V domain 1 with D30Y, S31D, Y32A, H34E, S50T, E53R, V92M, W93Q, F96V
V domain 2: B12 V domain 1
notes: also called TAR1-5-19CK d1CH
IC50 (human TNFα [5]): ~6 nM

B14: dAb3CH/TAR1-5CK (Fab, V domains shown)
V domain 1: DIQMTQSPSSLSASVGDRVTITCRASQSVKEFLWWYQQKPGKAPKLLIYMASNLQSGVPSRFSGSGSGTDFTLTISSLQPEDFATYYCQQKFKLPRTFGQGTKVEIK
V domain 2: B12 V domain 1 with D30F, S31M, Y32N, H34L, S50N, E53V
notes: also called TAR1-5CK d3CH
IC50 (human TNFα [5]): ~100 nM

B18: TAR1-5-19 cys hinge (other)
chain: DIQMTQSPSSLSASVGDRVTITCRASQSIDSYLHWYQQKPGKAPKLLIYSASELQSGVPSRFSGSGSGTDFTLTISSLQPEDFATYYCQQVVWRPFTFGQGTKVEIKREPKSGDKTHFCPPCP
notes: also called cysteine hinge linker format; hinge dimer
IC50 (human TNFα [2]): ~2 nM

Results, then the binder that gave them:

CA (cell assay) ND50 (human TNFα [1]): ~3 nM
IC50 (human TNFα [2]): ~2 nM
B1: TAR1-5-19 5U homodimer (other)
chain: DIQMTQSPSSLSASVGDRVTITCRASQSIDSYLHWYQQKPGKAPKLLIYSASELQSGVPSRFSGSGSGTDFTLTISSLQPEDFATYYCQQVVWRPFTFGQGTKVEIKRGGGGSGGGGSGGGGSGGGGSGGGGSDIQMTQSPSSLSASVGDRVTITCRASQSIDSYLHWYQQKPGKAPKLLIYSASELQSGVPSRFSGSGSGTDFTLTISSLQPEDFATYYCQQVVWRPFTFGQGTKVEIKR
notes: also called TAR1-5-19 homodimer with (Gly4Ser)5 linker

IC50 (human TNFα [4]): ~10 nM
B5: TAR1-5-19 d6 (other)
chain: B4 chain with F30D, M31S, N32Y, L34H, N50S, V53E

IC50 (human TNFα [4]): ~8 nM
B8: TAR1-5-19d5 (other)
scFv: B6 chain with F30D, M31S, N32Y, L34H, N50S, V53E

IC50 (human TNFα [4]): ~15 nM
B10: TAR1-5-19 d1 (other)
chain: B9 chain with F30D, M31S, N32Y, L34H, N50S, V53E

binding result (mouse serum albumin): binds
B11: anti-serum albumin Vκ dAb clones 30, 35 (other)
VL: B12 V domain 1 with D30R, S31R, H34K, S50Q, E53V, V91G, V92L, W93Y, R94P, F96I

IC50 (human TNFα [5]): ~90 nM
B15: TAR1-5CH/dAb1 CK (Fab, V domains shown)
V domain 1: B12 V domain 1 with D30F, S31M, Y32N, H34L, S50N, E53V
V domain 2: B12 V domain 1 with D30Y, S31D, Y32A, H34E, S50T, E53R, V92M, W93Q, F96V

IC50 (human TNFα [5]): ~3 nM
B16: TAR1-5-19CH/dAb3CK (Fab, V domains shown)
V domain 1: B12 V domain 1
V domain 2: B14 V domain 1
notes: also called TAR1-5-19CH d3CK

binding result (mouse serum albumin): binds
B17: anti-serum albumin Vκ dAb clones 46, 47, 52, 56 (other)
VL: B12 V domain 1 with D30F, S31K, Y32S, H34K, S50N, E53Y, W93Y, R94W, F96V
notes: same printed CDRs as clone 55
